Measurements from article PMC3766450 (Nature structural & molecular biology, 2013).

Biological target: vertebrate calmodulin (CaM) (UniProt P0DP23)
Test: ITC

Row | Binder | stoichiometry N
1 | LFPRAKSVSERLSILKGSRP [AQP0^CBD peptide L227A] | 1 peptide per CaM
2 | LFPRLKSVSERASILKGSRP [AQP0^CBD peptide L234A] | 2 peptides per CaM

Continued, values first:

Row | stoichiometry N | Binder
3 | 1 peptide per CaM | LFPRLKSASERLSILKGSRP [AQP0^CBD peptide V230A]
4 | 2 peptides per CaM | LFPRLKSVSERLSIAKGSRP [AQP0^CBD peptide L237A]
